Reference: paper PMC3631511

Columns and labels:
[1] = molecular target: ΔE22-Aβ_(1-39) (Japanese mutant Aβ); assay: fluorescence polarisation
[2] = molecular target: ΔE22-Aβ_(1-39) (Japanese mutant Aβ); assay: critical concentration

k (first-order rate constant of the increase in anisotropy on aggregation) [1]: 0.08 s⁻¹
critical concentration (Cr) [2]: 0.167 µM
Substance: ΔE22-Aβ_(1-39) (Japanese mutant Aβ) (peptide)
